In one experiment the target is T1, sRAGE (Homo sapiens, UniProt Q15109).
T1 construct: comprises three domains spanning amino-acid residues 23-325; His-tag with thrombin cleavage site (N); made in house; host or cells: 293E cells (printed as '293E hamster embryonic kidney cells')
Nature of the experiment: Biacore surface plasmon resonance, binding to immobilized sRAGE. The settings on record: Hb-AGE 32, amyloid γ-globulins 62.5, albumin-AGE 3.9 μg ml^−1. An excerpt: The soluble extracellular part, of the receptor for AGE (sRAGE) was cloned, expressed and purified as follows (Q.-H. Zeng, Prof. P. Gros, Dept. of Crystal- & Structural Chemistry, Bijvoet Center for Biomolecular Research, Utrecht University, Utrecht, the Netherlands). Human cDNA of RAGE was purchased from RZPD (clone IRALp962E1737Q2, RZPD, Berlin, Germany). For PCRs, the gagatct[…] forward primer was used comprising a BglII site, and the gcggccgc[…] reverse primer with a NotI site. The soluble extracellular part of RAGE comprises three domains spanning amino-acid residues 23-325. The PCR product was cloned into a pTT3 vector, containing an amino-terminal His-tag and a thrombin cleavage site. The sRAGE was expressed in 293E hamster embryonic kidney cells at the ABC-protein expression facility (Utrecht University, Utrecht, the Netherlands). […]
Binding of cross-β structure conformation containing peptides/proteins was studied using surface plasmon resonance technology with a Biacore 2000 apparatus (Biacore AB, Uppsala, Sweden). […] Binding of albumin-AGE was determined with a solution of 3.9 μg ml^−1 albumin-AGE in running buffer. albumin-AGE was filtered on a Millex-GV 0.22 μm filter unit (Millipore). […] Binding of Hb-AGE was also tested after centrifugation for 10 min. at 16,000*g alternative to filtration. tPA activation before and after filtration was assessed with a Plg-activation assay. […]
(In general: In SPR one partner is held on a chip, and binding of the other changes the refractive index at the surface.)

For another experiment, the system named is platelets. Description: Platelet aggregation assay. Format: cell-based, human. The settings on record: 512-fold diluted plasma spiked with 250 μg/ml BSA-AGE, tenfold diluted. On the procedure: In a next series of experiments, diluted plasma was enriched with a 250 μg/ml BSA-AGE spike and subsequently added to tPA F-biotin-Streptavidin-Sepharose. […] Results are compared to platelet activating properties of the spiked plasma before depletion of BSA-AGE.
Freshly drawn human aspirin free blood was mixed gently with citrate buffer to avoid coagulation. Blood was spinned for 15′ at 150*g at 20° C. and supernatant was collected; platelet rich plasma (PRP) with an adjusted final platelet number of 200,000 platelets/μl. Platelets were kept at 37° C. for at least 30′, before use in the assays, to ensure that they were in the resting state. For the aggregometric assays, 270 μl platelet solution was added to a glass tube and prewarmed to 37° C. A stirring magnet was added and rotation was set to 900 rpm, and the apparatus (Whole-blood aggregometer, Chrono-log, Havertown, Pa., USA) was blanked. A final volume of 30 μl of tester solution was added, containing the agonist of interest (buffer, control, diluted plasma with BSA-AGE, before and after contacting tPA F-biotin-Streptavidin-Sepharose), prediluted in HEPES-Tyrode buffer pH 7.2. Aggregation was followed in time by measuring the absorbance of the solution, that will decrease in time upon platelet aggregation. […] Aggregation was recorded for 15′ and expressed as the percentage of the transmitted light (0-100%).

T1 sequence (Q15109 23-325): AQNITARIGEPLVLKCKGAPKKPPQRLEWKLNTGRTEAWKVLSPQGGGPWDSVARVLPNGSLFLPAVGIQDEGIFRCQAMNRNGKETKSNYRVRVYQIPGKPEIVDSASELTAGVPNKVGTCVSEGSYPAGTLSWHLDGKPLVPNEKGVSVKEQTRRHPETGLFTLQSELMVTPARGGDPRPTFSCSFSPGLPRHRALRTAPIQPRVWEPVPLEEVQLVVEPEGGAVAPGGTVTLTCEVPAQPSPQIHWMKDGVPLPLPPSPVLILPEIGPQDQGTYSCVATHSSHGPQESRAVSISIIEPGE

Turning to “albumin-AGE: advanced glycation end-product modified bovine serum albumin”, the “binding to immobilized sRAGE” value with sRAGE is listed as “bind”. Further, the platelet aggregation result in the experiment with platelets is on record as “Platelets readily aggregate”.
